PMC3507735, “Cloning, expression and characterization of an aryl-alcohol dehydrogenase from the white-rot fungus Phanerochaete chrysosporium strain BKM-F-1767” (BMC Microbiology, 2012)

Tests used:
COc1ccc(C=O)cc1O = experiment: purified protein; conditions: reduction, 0.3 mM NADPH, 50 mM MES pH 6.1, 30°C
[1] = biological target: T1, Pc Aad1p (recombinant aryl-alcohol dehydrogenase, AAD1) (Phanerodontia chrysosporium, UniProt Q01752); experiment: spectrophotometric NADPH oxidation at […] nm, non-linear fit; conditions: read-out: KMμM; reduction; 0.3 mM NADPH, 50 mM MES pH 6.1, 30°C
T1 sequence (Q01752 1-385): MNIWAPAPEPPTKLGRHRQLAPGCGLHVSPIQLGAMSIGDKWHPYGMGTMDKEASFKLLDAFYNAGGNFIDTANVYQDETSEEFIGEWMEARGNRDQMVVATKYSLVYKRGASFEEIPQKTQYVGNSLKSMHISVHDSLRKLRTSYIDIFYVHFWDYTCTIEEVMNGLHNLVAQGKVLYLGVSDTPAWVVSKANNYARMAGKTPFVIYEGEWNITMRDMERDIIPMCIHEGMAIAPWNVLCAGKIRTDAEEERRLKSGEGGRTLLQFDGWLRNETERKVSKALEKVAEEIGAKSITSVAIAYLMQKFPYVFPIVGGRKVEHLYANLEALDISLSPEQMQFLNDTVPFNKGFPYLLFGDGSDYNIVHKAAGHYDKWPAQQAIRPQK

[2] = biological target: T1, Pc Aad1p (recombinant aryl-alcohol dehydrogenase, AAD1); experiment: spectrophotometric NADPH oxidation at […] nm, fit to uncompetitive substrate inhibition equation; type: biochemical; design: full-length ORF (1155 bp) in pGS-21a; N-terminal His6-GST and C-terminal His6 tags kept; E. coli BL21 Star(DE3); conditions: substrate inhibition constant (uncompetitive); 0.3 mM NADPH, 50 mM MES pH 6.1, 30°C
purified protein [3] = substrate: O=CCc1ccccc1; experiment: purified protein; conditions: reduction, 0.3 mM NADPH, 50 mM MES pH 6.1, 30°C
purified protein [4] = substrate: O=Cc1ccc(CO)o1; experiment: purified protein; conditions: reduction, 0.3 mM NADPH, 50 mM MES pH 6.1, 30°C
purified protein [5] = substrate: COc1cc(C=O)cc(OC)c1; experiment: purified protein; conditions: reduction, 0.3 mM NADPH, 50 mM MES pH 6.1, 30°C
purified protein [6] = substrate: O=Cc1ccccc1; experiment: purified protein; conditions: reduction, 0.3 mM NADPH, 50 mM MES pH 6.1, 30°C
purified protein [7] = substrate: COc1cc(C=O)ccc1O; experiment: purified protein; conditions: reduction, 0.3 mM NADPH, 50 mM MES pH 6.1, 30°C
purified protein [8] = substrate: COc1ccc(C=O)cc1OC; experiment: purified protein; conditions: reduction, 0.3 mM NADPH, 50 mM MES pH 6.1, 30°C
purified protein [9] = substrate: NC(=O)C1=CN([C@@H]2O[C@H](COP(=O)(O)OP(=O)(O)OC[C@H]3O[C@@H](n4cnc5c(N)ncnc54)[C@H](O)[C@@H]3O)[C@@H](O)[C@H]2O)C=CC1; experiment: purified protein; type: biochemical, Phanerodontia chrysosporium; conditions: 0.2 mM 3,4-dimethoxybenzaldehyde, 50 mM MES pH 6.1, 30°C, varied: cofactor
purified protein [10] = substrate: COc1ccc(CO)cc1OC; experiment: purified protein; type: biochemical, Phanerodontia chrysosporium; conditions: oxidation, 0.3 mM NADP+, 100 mM Glycine-KOH pH 10.3, 30°C
purified protein [11] = substrate: NC(=O)C1=CN([C@@H]2O[C@H](COP(=O)(O)OP(=O)(O)OC[C@H]3O[C@@H](n4cnc5c(N)ncnc54)[C@H](OP(=O)(O)O)[C@@H]3O)[C@@H](O)[C@H]2O)C=CC1; experiment: purified protein; type: biochemical, Phanerodontia chrysosporium; conditions: 0.2 mM 3,4-dimethoxybenzaldehyde, 50 mM MES pH 6.1, 30°C, varied: cofactor
purified protein [12] = substrate: NC(=O)c1ccc[n+]([C@@H]2O[C@H](COP(=O)(O)OP(=O)(O)OC[C@H]3O[C@@H](n4cnc5c(N)ncnc54)[C@H](OP(=O)(O)O)[C@@H]3O)[C@@H](O)[C@H]2O)c1; experiment: purified protein; type: biochemical, Phanerodontia chrysosporium; conditions: 10 mM 3,4-dimethoxybenzyl alcohol, 100 mM Glycine-KOH pH 10.3, 30°C, varied: cofactor
purified protein [13] = substrate: COc1cc(CO)ccc1O; experiment: purified protein; type: biochemical, Phanerodontia chrysosporium; conditions: oxidation, 0.3 mM NADP+, 100 mM Glycine-KOH pH 10.3, 30°C

Q: For “Pc Aad1p (recombinant aryl-alcohol dehydrogenase, AAD1) (Phanerodontia chrysosporium)”, which Km (COc1ccc(C=O)cc1O) is on record?
A: Its Km is 1400 ± 900 µM.

Q: And the kcat (COc1ccc(C=O)cc1O)?
A: Its kcat is 3.83 ± 1.83 s⁻¹.

Q: What about the kcat/Km (COc1ccc(C=O)cc1O) of the same molecule?
A: The kcat/Km was 2670 M⁻¹ s⁻¹.

Q: What does the source list for `O=C/C=C/c1ccccc1` [trans-Cinnamaldehyde]?
A: Km [1]: 3400 ± 1300 µM; KiμM [2]: 3500 ± 1600 µM

Q: With `COc1ccc(C=O)cc1` [4-Methoxybenzaldehyde] as the molecule, how does the Km [1] read?
A: The Km was 90 ± 10 µM.

Q: Which KiμM [2] does the source give for `COc1ccc(C=O)cc1OC` [3,4-Dimethoxybenzaldehyde] here?
A: Its KiμM is 3400 ± 1100 µM.

Q: For `COc1ccc(C=O)cc1O` [3-Hydroxy-4-methoxybenzaldehyde], which KiμM [2] is on record?
A: The KiμM was 2300 ± 1800 µM.

Q: `O=Cc1ccccc1` [Benzaldehyde] was tested. Which KiμM [2] did it give?
A: Its KiμM is 81000 ± 44000 µM.

Q: Which KiμM [2] does the source give for `COc1cc(C=O)cc(OC)c1` [3,5-Dimethoxybenzaldehyde] here?
A: Its KiμM is 2100 ± 600 µM.

Q: How did the KiμM [2] turn out when `COc1cc(C=O)ccc1O` [4-Hydroxy-3-methoxybenzaldehyde] was run?
A: The KiμM was 5100 ± 2300 µM.

B1: Pc Aad1p (recombinant aryl-alcohol dehydrogenase, AAD1) (Phanerodontia chrysosporium) (protein)
chain: T1 sequence (Q01752 1-385)
notes: full-length ORF (1155 bp) in pGS-21a; N-terminal His6-GST and C-terminal His6 tags kept; E. coli BL21 Star(DE3)
Q: Which results are given for B1?
A: Km (purified protein [3]): 530 ± 90 µM; kcat (purified protein [3]): 11.2 ± 0.417 s⁻¹; kcat/Km (purified protein [3]): 21700 M⁻¹ s⁻¹; Km (purified protein [4]): 270 ± 40 µM; kcat (purified protein [4]): 2.93 ± 0.1 s⁻¹; kcat/Km (purified protein [4]): 10800 M⁻¹ s⁻¹; Km (purified protein [5]): 22 ± 4 µM; kcat (purified protein [5]): 9.83 ± 0.5 s⁻¹; kcat/Km (purified protein [5]): 450000 M⁻¹ s⁻¹; Km (purified protein [6]): 1700 ± 600 µM; kcat (purified protein [6]): 7.17 ± 0.833 s⁻¹; kcat/Km (purified protein [6]): 5000 M⁻¹ s⁻¹; Km (purified protein [7]): 1400 ± 600 µM; kcat (purified protein [7]): 3.33 ± 0.833 s⁻¹; kcat/Km (purified protein [7]): 2330 M⁻¹ s⁻¹; Km (purified protein [8]): 12 ± 2 µM; kcat (purified protein [8]): 8.83 ± 0.417 s⁻¹; kcat/Km (purified protein [8]): 733000 M⁻¹ s⁻¹; Km (purified protein [9]): 220 ± 130 µM; kcat (purified protein [9]): 2 ± 0.667 s⁻¹; kcat/Km (purified protein [9]): 10000 M⁻¹ s⁻¹; Km (purified protein [10]): 370 ± 50 µM; kcat (purified protein [10]): 2.55 ± 0.1 s⁻¹; kcat/Km (purified protein [10]): 6830 M⁻¹ s⁻¹; Km (purified protein [11]): 39 ± 5 µM; kcat (purified protein [11]): 11.3 ± 0.5 s⁻¹; kcat/Km (purified protein [11]): 283000 M⁻¹ s⁻¹; Km (purified protein [12]): 38 ± 7 µM; kcat (purified protein [12]): 2.57 ± 0.12 s⁻¹; kcat/Km (purified protein [12]): 68300 M⁻¹ s⁻¹; Km (purified protein [13]): 25000 ± 7000 µM; kcat (purified protein [13]): 4.33 ± 1 s⁻¹; kcat/Km (purified protein [13]): 167 M⁻¹ s⁻¹
